# US20130177579A1 (BIOALLIANCE C V, published 2013)
# Key:
# [1] = biological target: T1, human transferrin receptor expressed by normal human cells (RBC, PMN, lymphocytes, monocytes, platelets, … (human, UniProt P02786 1-760)); assay: FACS, lymphocytes, donor D102, 1/10x
# T1 construct: The assay is whole-cell FACS on normal donor cells; also called TfR on normal cells
# Description: (§1) Preparation of PBMC and PMN: The whole blood was diluted with an equal volume of PBS and mixed with 1/10 volume of 15% Dextran solution. […] After centrifugation at 2200 rpm for 15 min (rotor: SORVALL, PN11788 and centrifuge: SORVALL, RT7), PBMC concentrated in the interface, were collected and washed with large volumes of FACS buffer (2% FBS in PBS) for future use. The PMN-rich pellet was collected, from which residual RBC was removed by hypotonic lysis in 0.2% NaCl.
# (§2) 1×10⁵ cells were seeded in each well of a v-bottomed 96-well plate and incubated with 50 μl of hybridoma culture supernatant at 1× and 10× dilution, or isotype control antibody mouse IgM, κ (BD™, Cat. No. 557275) at concentration of 1 μg/ml. A 300× dilution of human cell hyper-immune serum was used as binding positive control for all cell types. PE-conjugated anti-human CD41a (Southern Biotech™, Cat. No. 9391-09) was used as a positive control for staining human platelets. Anti-sialyl Lewis x antibody (Millipore™, Cat. No. MAB2096) was used as a positive control for staining human PMN. Anti-human CD31 (Hycult™, Cat. No. HM2039) was used as a positive control for staining HUVEC. After 30 minutes incubation at 4° C., cells were washed twice with 200 μl FACS buffer (1×PBS containing 1% FBS), stained with 50 μl of 1 μg/ml goat F(ab′)2-anti-mouse IgG(H+L)-PE (Southern Biotech™, Cat. No. 1032-09) or 1 μg/ml goat F(ab′)2-anti-mouse IgM(H+L)-PE (Southern Biotech™, Cat. No. 1022-09) in FACS buffer. After 30 minutes of incubation at 4° C., cells were washed twice with FACS buffer and analyzed by flow cytometry (BD LSR, BD Life Sciences).
# [2] = biological target: T1, human transferrin receptor expressed by …; assay: FACS, lymphocytes, donor D014, 1/10x
# Description: as §1, §2
# [3] = biological target: T1, human transferrin receptor expressed by …; assay: FACS, PMN, donor D005, 1x
# Description: (§3) The hyper-immuned serum (Hyp-serum) or the corresponding cell marker antibodies for certain cell types were included as positive controls.
# as §2
# [4] = biological target: T1, human transferrin receptor expressed by …; assay: FACS, platelets, donor D005, 1/10x
# Description: as §3, §2
# [5] = biological target: T1, human transferrin receptor expressed by …; assay: FACS, RBC, donor D014, 1x
# Description: as §3, §2
# [6] = biological target: T1, human transferrin receptor expressed by …; assay: FACS, RBC, donor D102, 1x
# Description: as §3, §2
# [7] = biological target: T1, human transferrin receptor expressed by …; assay: FACS, monocytes, donor D102, 1/10x
# Description: as §3, §2
# [8] = biological target: T2, human transferrin receptor expressed by Jurkat cells (human, UniProt P02786 1-760); assay: FACS, Jurkat cells, 1X
# T2 construct: Endogenous receptor on Jurkat cells; MEM189 was the positive control; also called TfR on T leukemia cell line Jurkat
# T2 sequence (P02786 whole entry G142S): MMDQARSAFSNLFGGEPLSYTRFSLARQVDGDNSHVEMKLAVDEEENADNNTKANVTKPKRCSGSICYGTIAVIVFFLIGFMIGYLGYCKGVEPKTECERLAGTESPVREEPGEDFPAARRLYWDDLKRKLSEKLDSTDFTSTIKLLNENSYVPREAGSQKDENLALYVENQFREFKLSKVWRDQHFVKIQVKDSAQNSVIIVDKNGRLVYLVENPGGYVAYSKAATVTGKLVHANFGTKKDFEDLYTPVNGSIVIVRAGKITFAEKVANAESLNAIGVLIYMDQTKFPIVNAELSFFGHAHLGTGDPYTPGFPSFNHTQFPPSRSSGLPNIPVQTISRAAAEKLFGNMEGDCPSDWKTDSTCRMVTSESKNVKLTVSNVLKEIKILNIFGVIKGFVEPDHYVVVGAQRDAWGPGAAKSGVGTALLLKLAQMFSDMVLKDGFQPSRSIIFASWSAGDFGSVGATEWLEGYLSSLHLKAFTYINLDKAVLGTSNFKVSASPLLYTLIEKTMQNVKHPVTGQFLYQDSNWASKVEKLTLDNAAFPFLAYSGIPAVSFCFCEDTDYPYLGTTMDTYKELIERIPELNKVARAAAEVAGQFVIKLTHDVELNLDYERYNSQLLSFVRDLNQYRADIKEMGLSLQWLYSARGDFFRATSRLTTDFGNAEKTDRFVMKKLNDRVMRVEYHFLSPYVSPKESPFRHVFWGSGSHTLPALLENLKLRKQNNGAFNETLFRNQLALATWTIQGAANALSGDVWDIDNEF
# [9] = biological target: T1, human transferrin receptor expressed by …; assay: FACS, RBC, donor D016, 1/10x
# Description: as §3, §2
# [10] = biological target: T1, human transferrin receptor expressed by …; assay: FACS, monocytes, donor D005, 1/10x
# Description: as §1, §2
# [11] = biological target: human transferrin receptor expressed by nonhematopoietic cancer cells (human) (UniProt P02786); assay: FACS, H358 cells, 1/10X
# Chain of human transferrin receptor expressed by nonhematopoietic cancer cells (human) (P02786 whole entry G142S): as above
# [12] = biological target: T1, human transferrin receptor expressed by …; assay: FACS, PMN, donor D016, 1/10x
# Description: as §1, §2
# [13] = biological target: T1, human transferrin receptor expressed by …; assay: FACS, HUVEC, 1x
# Description: as §3, §2
# [14] = biological target: human transferrin receptor expressed by nonhematopoietic cancer cells (human) (UniProt P02786); assay: cell-based or functional assay
# [15] = biological target: T1, human transferrin receptor expressed by …; assay: FACS, RBC, donor D005, 1x
# Description: as §3, §2
# [16] = biological target: T1, human transferrin receptor expressed by …; assay: FACS, RBC, donor D014, 1/10x
# Description: as §3, §2
# [17] = biological target: human transferrin receptor expressed by nonhematopoietic cancer cells (human) (UniProt P02786); assay: FACS, HEC-1-A cells, 1/5X
# [18] = biological target: T1, human transferrin receptor expressed by …; assay: FACS, PMN, donor D014, 1/10x
# Description: as §1, §2
# [19] = biological target: human transferrin receptor expressed by nonhematopoietic cancer cells (human) (UniProt P02786); assay: FACS, SU.86.86 cells, 1/5X
# T1 sequence (P02786 whole entry G142S): as above
% positive cell binding [1],% positive cell binding [2],% positive cell binding [3],% positive cell binding [4],% positive cell binding [5],% positive cell binding [6],% positive cell binding [7],% of gated cells [8],% positive cell binding [9],% positive cell binding [10],MFI [11],% positive cell binding [12],% positive cell binding [13],percentage of Annexin V positive and/or PI positive cells; COLO205; 1/2X (IgM 19.1) [14],percentage of Annexin V positive and/or PI positive cells; COLO205; 1/6X (IgM 19.1) [14],% positive cell binding [15],% positive cell binding [16],MFI [17],% positive cell binding [18],MFI [19],Binder,also measured
2%,1%,< 1%,< 1%,1%,< 1%,4%,1%,1%,4%,2460 MFI,1%,1%,80.3%,25.2%,< 1%,1%,15 MFI,< 1%,4600 MFI,"antibody 122-72 (antibody, V domains shown, Mouse IgM, kappa from a hybridoma; tested as hybridoma culture supernatant; Antibody 60-43 is said to have the same CDRs) VH: EVQLVESGGGLVQPKGSLKLSCAASGFTFNTYAMNWVRQAPGKGLEWVARIRSKSNNYATYYADSVKDRFTISRDDSQSMLYLQMNNLKTEDTAMYYCVAYGSRNYWGQGTTLTVSS VL: DIVMTQSPSSLTVTAGEKVTMSCKSSQSLLNSGNQKNYLTWYQQKPGQPPKLLIYWASTRESGVPDRFTGSGSGTDFTLTISSVQAEDLAVYYCQNDYSYPYTFGGGTKLEIKR",percentage of Annexin V positive and/or PI positive cells; COLO205; 1/18X (IgM 19.1) [14]: 18.6%; percentage of Annexin V positive and/or PI positive cells; DLD1; 1/2X (IgM 24.3) [14]: 42.2%; percentage of Annexin V positive and/or PI positive cells; DLD1; 1/6X (IgM 24.3) [14]: 38.6%; percentage of Annexin V positive and/or PI positive cells; DLD1; 1/18X (IgM 24.3) [14]: 37.1%; percentage of Annexin V positive and/or PI positive cells; H358; 1/2X (IgM 31.8) [14]: 70.8%; percentage of Annexin V positive and/or PI positive cells; H358; 1/6X (IgM 31.8) [14]: 70.1%; percentage of Annexin V positive and/or PI positive cells; H358; 1/18X (IgM 31.8) [14]: 63.9%; percentage of Annexin V positive and/or PI positive cells; Pan 02.03B; 1/2X (IgM 16.9) [14]: 31.5%; percentage of Annexin V positive and/or PI positive cells; Pan 02.03B; 1/6X (IgM 16.9) [14]: 20.5%; percentage of Annexin V positive and/or PI positive cells; Pan 02.03B; 1/18X (IgM 16.9) [14]: 20.5%; percentage of Annexin V positive and/or PI positive cells; SNU-16; 1/2X (IgM 30.0) [14]: 46.6%; percentage of Annexin V positive and/or PI positive cells; SNU-16; 1/6X (IgM 30.0) [14]: 43.5%; percentage of Annexin V positive and/or PI positive cells; SNU-16; 1/18X (IgM 30.0) [14]: 36.6%; percentage of Annexin V positive and/or PI positive cells; SU.86.86; 1/2X (IgM 12.1) [14]: 41.3%; percentage of Annexin V positive and/or PI positive cells; SU.86.86; 1/6X (IgM 12.1) [14]: 29.3%; percentage of Annexin V positive and/or PI positive cells; SU.86.86; 1/18X (IgM 12.1) [14]: 23.4%
2%,1%,1%,< 1%,1%,< 1%,2%,< 1%,1%,4%,1600 MFI,< 1%,1%,50.9%,42.2%,< 1%,< 1%,11 MFI,< 1%,2940 MFI,"antibody 6-90 (antibody, mouse IgM, V domains shown, Mouse IgM, kappa from a hybridoma; tested as hybridoma culture supernatant) VH: EVELQQFGIEMVKPGASVKISCKASGYIFTDYHMDWVRQSHGKSLEWIGDIDPKYDRVTYNQKFKGKASLTADKSSSTAYMELRSLTSEDTAVYYCAKTGAYGDYLAYWGQGTLVTVSA VL: DLVMTQTPLSLPVSLGDQASISCRSSQSLVHSDGNTYFYWYLQKPGQSPKLLIYKVSNRFSGVPDRFSAGGSGTYFTLKISRVEAEDLGVYFCSQTTHFPPTFGGGTKLEIKR",percentage of Annexin V positive and/or PI positive cells; COLO205; 1/18X (IgM 19.1) [14]: 22.9%; percentage of Annexin V positive and/or PI positive cells; DLD1; 1/2X (IgM 24.3) [14]: 50.6%; percentage of Annexin V positive and/or PI positive cells; DLD1; 1/6X (IgM 24.3) [14]: 42.3%; percentage of Annexin V positive and/or PI positive cells; DLD1; 1/18X (IgM 24.3) [14]: 38.9%; percentage of Annexin V positive and/or PI positive cells; H358; 1/2X (IgM 31.8) [14]: 50.7%; percentage of Annexin V positive and/or PI positive cells; H358; 1/6X (IgM 31.8) [14]: 49%; percentage of Annexin V positive and/or PI positive cells; H358; 1/18X (IgM 31.8) [14]: 46.9%; percentage of Annexin V positive and/or PI positive cells; Panc 02.03B; 1/2X (IgM 19.0) [14]: 46.7%; percentage of Annexin V positive and/or PI positive cells; Panc 02.03B; 1/6X (IgM 19.0) [14]: 28.7%; percentage of Annexin V positive and/or PI positive cells; Panc 02.03B; 1/18X (IgM 19.0) [14]: 24.5%; percentage of Annexin V positive and/or PI positive cells; SNU-16; 1/2X (IgM 30.0) [14]: 40.2%; percentage of Annexin V positive and/or PI positive cells; SNU-16; 1/6X (IgM 30.0) [14]: 37.2%; percentage of Annexin V positive and/or PI positive cells; SNU-16; 1/18X (IgM 30.0) [14]: 34.8%
1%,1%,1%,< 1%,1%,< 1%,1%,1%,1%,3%,295 MFI,< 1%,2%,–,–,< 1%,1%,1240 MFI,< 1%,96 MFI,"antibody 55-31 (antibody, mouse IgM, V domains shown, Mouse IgM, kappa from a hybridoma; tested as hybridoma culture supernatant) VH: QVQLQQPGAELVKPGTSVKLSCKASGYNFTSYWINWVKLRPGQGLEWIGDIYPGSGSTNYNEKFKSKATLTVDTSSSTAYMQLSSLASEDSALYYCARSAYRYDWFAYWGQGTLVTVSA VL: DIQMTQSPASLSVSVGETVTITCRASENIYSNLAWYQQKQGKSPQLLVYAATNLADGVPSRFSGSGSGTQYSLKINSLQSEDFGSYYCQHFWGTPYTFGGGTKLEIKR",percentage of Annexin V positive and/or PI positive cells; DU145; 1/2X (IgM 19.5) [14]: 31%; percentage of Annexin V positive and/or PI positive cells; DU145; 1/6X (IgM 19.5) [14]: 35.4%; percentage of Annexin V positive and/or PI positive cells; DU145; 1/18X (IgM 19.5) [14]: 23.6%
